Patent US20210061908A1 (IOMX THERAPEUTICS, published 2021)

T1: extracellular domain (ECD) of human IGSF11 (VSIG3), biotinylated (human, UniProt Q5DX21 23-241, biotinylated (site not stated))
T1 construct: also called human IGSF11 protein
T1 sequence: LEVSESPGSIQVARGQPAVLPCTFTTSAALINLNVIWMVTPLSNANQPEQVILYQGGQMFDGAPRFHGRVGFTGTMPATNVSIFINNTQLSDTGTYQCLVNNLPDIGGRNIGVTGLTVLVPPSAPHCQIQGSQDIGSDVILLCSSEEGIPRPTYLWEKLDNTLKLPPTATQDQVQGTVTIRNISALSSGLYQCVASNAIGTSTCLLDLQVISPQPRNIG

T2: extracellular domain (ECD) of murine IGSF11, biotinylated (mouse, UniProt P0C673 23-240, biotinylated (site not stated))
T2 construct: also called Mouse IGSF11; murine IGSF11 protein
T2 sequence: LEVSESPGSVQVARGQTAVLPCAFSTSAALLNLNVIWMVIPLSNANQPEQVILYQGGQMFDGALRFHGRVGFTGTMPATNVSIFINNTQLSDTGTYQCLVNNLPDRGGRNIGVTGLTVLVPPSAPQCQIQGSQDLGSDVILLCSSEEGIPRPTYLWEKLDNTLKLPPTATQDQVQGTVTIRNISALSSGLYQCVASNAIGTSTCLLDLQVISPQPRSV


Legend:
[1] = target: T1, extracellular domain (ECD) of human …; test: ELISA, scFv; RFU grade (*** >1.0, ** 0.5-1.0, * 0.1-0.5)
[2] = target: T2, extracellular domain (ECD) of murine …; test: as above

| Binder | relative fluorescent units (RFU), ELISA [1] | relative fluorescent units (RFU), ELISA [2] |
| --- | --- | --- |
| A-001 (scFv format) (scFv, V domains shown, scFv) VH: EVQLVESGGGLVKPGGSLRLSCAASGFTFSSYSMNWVRQAPGKGLEWVSSISSSSSYIYYADSVKGRFTISRDNAKNSLYLQMNSLRAEDTAVYYCVRSIIVQALGITSVFDIWGQGTMVTVSS VL: AIRLTQSPSSLSASVGDRVTISCRASQIISNHLNWYQQKPGKAPKLLIYAASRLQTGVPSRFSGSGSETDYTLTISSLQPEDFATYYCQQSYSNPRTFGHGTKVEIK | > 1 rfu | > 1 rfu |
| A-012 (scFv format) (scFv, V domains shown, scFv) VH: EVQLLESGGGLIQPGGSLRLSCAVSGFTVSSNYMSWVRQAPGKGLEWVSVIYSGGSTYYADSVKGRFTISRDNSKNTLYLQMNSLRAEDTAVYYCARGNPYYYGDLQVNFDYWGQGTLVTVSS VL: QAVVTQEPSLTVSPGGTVTLTCASSTGAVTSGYYPNWFQQKPGQAPRALIYSTSNKHSWTPARFSGSLLGGKAALTLSGVQPEDEAEYYCLLYYGGAWVFGGGTKLTVL | 0.5 to 1 rfu | 0.5 to 1 rfu |
| A-002 (scFv format) (scFv, V domains shown, scFv) VH: EVQLVESGGGLIQPGGSLRLSCAASGFTVSSNYMSWVRQAPGKGLEWVSVIYSGGSTYYADSVKGRFTISRDNSKNTLYLQMNSLRAEDTAVYYCARGNPYYYGDLQVNFDYWGQGTLVTVSS VL: QAVVTQEPSLTVSPGGTVTPTCGSSTGAVTSGNLPNWFQQKPGQAPRALIYSTSNKHSWTPARISGSLLGGKAALTLSGVQPEDEAEYYCLLYYGGAWVFGGGTKLTVL | 0.5 to 1 rfu | 0.1 to 0.5 rfu |
| A-005 (scFv format) (scFv, V domains shown, scFv) VH: EVQLVESGGGLIQPGGSLRLSCAASGFTVSSNYMSWVRQAPGKGLEWVSVIYSGGSTYYADSVKGRFTISRDNSKNTLYLQMNSLRAEDTAVYYCARGNPYYYGDLQVNFDYWGQGTLVTVSS VL: QAVVTQEPSLTVSPGETVTLTCASSTGAVTSGYYPNWFQQRPGQAPRALIYSTSNKDSWTPARFSGSLLGGKAALTLSGVQPEDEAEYYCLLYYGGAWVFGGGTKLTVL | 0.5 to 1 rfu | 0.1 to 0.5 rfu |
| A-006 (scFv format) (scFv, V domains shown, scFv) VH: EVQLVESGGGLIQPGGSLRLSCAASGFTVSSNYMSWVRQAPGKGLEWVSVIYSGGSTYYADSVKGRFTISRDNSKNTLYLQMNSLRAEDTAVYYCARGNPYYYGDLQVNFDYWGQGTLVTVSS VL: QAVVTQEPSLTVSPGGTVTLTCASSTGAVTSGYYPNWFQQKPGQAPRPLIYSTSNKHSWTPARFSGSLLGGKAALTLSGVQPDDEAEYYCLLYYGGDWVFGGGTKLTVL | 0.5 to 1 rfu | 0.5 to 1 rfu |
| A-004 (scFv format) (scFv, V domains shown, scFv) VH: EVQLVESGGGLVKPGGSLRLSCAASGFTFSSYSMNWVRQAPGKGLEWVSSISSSSSYIYYADSVKGRFTISRDNAKNSLYLQMNSLRAEDTAVYYCARGQLLWFGESALIDAFDIWGQGTMVTVSS VL: EIVLTQSPSSLSASVGDRVTITCRASQSISSYLNWYQLKPGKAPKLLIYAASILQSGVPSRFSGSGSGTDFTLTISSLQPEDFAAYYCQQSYSTPRTFGQGTKLEIK | 0.5 to 1 rfu | > 1 rfu |
| A-030 (scFv format) (scFv, V domains shown, scFv) VH: QVQLVQSGAEVKKPGASVKVSCKASGYTFTGYYMHWVRQAPGQGLEWMGWINPNSGNTGYAQKFQGRVTMTRNTSISTAYMELSSLRSEDTAVYYCARGGQQQLVLDDYWGQGTLVTVSS VL: DIQLTQSPSTLSASVGDRVTITCRASQSIGGWLAWYQHKPGKAPKLLIYAASSLQSGVPSRFSGSGSGTDFTLTISSLQPEDFATYYCRQSYSTPPTFGQGTKVEIK | 0.1 to 0.5 rfu | 0.1 to 0.5 rfu |

Other lines, results leading:

| relative fluorescent units (RFU), ELISA [1] | relative fluorescent units (RFU), ELISA [2] | Binder |
| --- | --- | --- |
| 0.1 to 0.5 rfu | 0.1 to 0.5 rfu | A-033 (scFv format) (scFv, V domains shown, scFv) VH: QVQLVQSGAEVKKPGASVKVSCKASGYTFTSYGISWVRQAPGQGLEWMGWISAYNGNTNYAQKLQGRVTMTTDTSTSTAYMELRSLRSDDTAVYYCARDHSIVGATTFDYWGQGTLVTVSS VL: not shown |
| 0.5 to 1 rfu | 0.5 to 1 rfu | A-013 (scFv format) (scFv, V domains shown, scFv) VH: EVQLVESGGGLIQPGGSLRLSCAASGFTVSSNYMSWVRQAPGKGLEWVSVIYSGGSTYYADSVKGRFTISRDNSKNTLYLQMNSLRAEDTAVYYCARGNPYYYGDLQVNFDYWGQGTLVTVSS VL: QAVVTQEPSLTVSPGGTVTLTCASSTGAVTSAYYPNWFQQKPGQAPRALIYSTSNKHSWTPARFSGSLLGGKAALTLSGVQPEDEADYYCLLYYGGAWVFGGGTKLTVL |
| 0.5 to 1 rfu | > 1 rfu | A-035 (scFv format) (scFv, V domains shown, scFv) VH: QVQLVQSGAEVKKPGASVKVSCKASGYTFTGYYMHWVRQAPGQGLEWMGWINPNSGNTGYAQKFQGRVTMTRNTSISTAYMELSSLRSEDTAVYYCARGRLERGYWYFDLWGRGTLVTVSS VL: NFMLTQPHSVSESPGRTVTISCTRSSGSITSNYVQWYQQRPGSAPTILIYEDKERPSEVPDRFSGSIDISSNSASLTISGLKTEDEADYYCQSYGGTSQGVLFGGGTKVTVL |
| > 1 rfu | 0.5 to 1 rfu | A-034 (scFv format) (scFv, V domains shown, scFv) VH: QMQLVQSGGGLVKPGGSLRLSCAASGFTFSSYTMNWVRQAPGKGLEWVSSISSIGTYIYYADSVKGRFTISRDNAKNSLYLQMNSLRAEDTAVYYCARVLLSGSYYGYFDSWGQGTLVTVSS VL: QSVLTQPPSVSGAPGQRVTISCTGSSSNIGAGYDVHWYQQLPGTAPKLFIYGNSNRPSGVPDRFSGSKSGTSASLAITGLQAEDEADYYCQSYDSSLSGYVFGTGTKVTVL |
| 0.1 to 0.5 rfu | 0.1 to 0.5 rfu | A-031 (scFv format) (scFv, V domains shown, scFv) VH: not shown VL: EIVLTQSPGTVSLSPGERATLSCRASQSVPKNYLAWFQQKPGQAPRLVIHTASSRAPGIPDRFTGSGSGTDFTLTISRLEPEDFAVYYCQQYGTSPNTFGQGTKLDIK |
| 0.5 to 1 rfu | 0.5 to 1 rfu | A-007 (scFv format) (scFv, V domains shown, scFv) VH: not shown VL: QSALTQPASVSGSPGQSITIACTGSSSDIGSFSYVSWYQQRPGKAPTLIIYGVNNRPLGVSRRFSGSKSGNTASLSISGLQAEDEADYYCSSYTRRSTVIFGGGTKLTVL |
| 0.1 to 0.5 rfu | 0.1 to 0.5 rfu | A-032 (scFv format) (scFv, V domains shown) VH: QVQLVQSGAEVKKPGASVKVSCKASGYTFTGYYMHWVRQAPGQGLEWMGWMNPNSGNTGYAQKFQGRVTMTRNTSISTAYMELSSLRSEDTAVYYCARGGQQQLVLDDYWGQGTLVTVSS VL: not shown |
| 0.1 to 0.5 rfu | 0.1 to 0.5 rfu | A-037 (scFv format) (scFv, V domains shown, scFv) VH: QVQLVQSGAEVKKPGASVKVSCKASGYTFTGYYMHWVRQAPGQGLEWMGWINPNSGNTGYAQKFQGRVTMTRNTSISTAYMELSSLRSEDTAVYYCARGGQQQLVLDDYWGQGTLVTVSS VL: NFMLTQPHSVSESPGKTVTISCTGSSGSIASNYVQWYQQRPGSAPTTVIYEDNQRPSGVPDRFSGSIDSSSNSASLTISGLKTEDEADYYCQSYDSSNQRVFGGGTKLTVL |
| 0.1 to 0.5 rfu | 0.1 to 0.5 rfu | A-036 (scFv format) (scFv, V domains shown, scFv) VH: QVQLVQSGAEVKKPGASVKVSCKASGYTFTGYYMHWVRQAPGQGLEWMGWINPNSGGTNYAQKFQGRVTMTRNTSISTAYMELSSLRSEDTAVYYCARGGQQQLVLDDYWGQGTLVTVSS VL: not shown |
